{"source": "paper doi:10.1101/108647", "key": {"[1]": {"molecular_target": "T1, HisFlag-Mlh1 (MutLγ subunit);Mlh3 (MutLγ subunit) (Saccharomyces cerevisiae (S288c, …, UniProt P38920;Q12083 1-769;1-715, |))", "T1 sequence 1": "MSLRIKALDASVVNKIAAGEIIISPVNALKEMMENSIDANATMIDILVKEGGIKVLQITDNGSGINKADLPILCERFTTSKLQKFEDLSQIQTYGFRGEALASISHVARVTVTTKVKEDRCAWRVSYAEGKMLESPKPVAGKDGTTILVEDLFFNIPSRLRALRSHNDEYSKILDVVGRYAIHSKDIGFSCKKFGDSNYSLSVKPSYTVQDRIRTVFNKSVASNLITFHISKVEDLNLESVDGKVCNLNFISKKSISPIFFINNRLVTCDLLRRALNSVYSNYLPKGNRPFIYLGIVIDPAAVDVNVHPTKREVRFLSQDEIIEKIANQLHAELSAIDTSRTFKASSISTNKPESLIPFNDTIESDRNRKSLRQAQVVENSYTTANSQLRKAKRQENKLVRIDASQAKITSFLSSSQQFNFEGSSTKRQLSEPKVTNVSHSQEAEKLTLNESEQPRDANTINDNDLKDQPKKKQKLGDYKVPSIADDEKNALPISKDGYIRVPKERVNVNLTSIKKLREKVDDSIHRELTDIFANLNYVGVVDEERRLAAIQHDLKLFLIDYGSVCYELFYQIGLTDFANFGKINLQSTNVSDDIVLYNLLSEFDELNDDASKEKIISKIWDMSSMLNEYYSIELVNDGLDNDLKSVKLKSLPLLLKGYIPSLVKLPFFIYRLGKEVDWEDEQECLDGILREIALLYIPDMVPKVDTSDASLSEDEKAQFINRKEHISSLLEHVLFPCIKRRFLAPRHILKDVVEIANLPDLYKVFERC", "T1 sequence 2": "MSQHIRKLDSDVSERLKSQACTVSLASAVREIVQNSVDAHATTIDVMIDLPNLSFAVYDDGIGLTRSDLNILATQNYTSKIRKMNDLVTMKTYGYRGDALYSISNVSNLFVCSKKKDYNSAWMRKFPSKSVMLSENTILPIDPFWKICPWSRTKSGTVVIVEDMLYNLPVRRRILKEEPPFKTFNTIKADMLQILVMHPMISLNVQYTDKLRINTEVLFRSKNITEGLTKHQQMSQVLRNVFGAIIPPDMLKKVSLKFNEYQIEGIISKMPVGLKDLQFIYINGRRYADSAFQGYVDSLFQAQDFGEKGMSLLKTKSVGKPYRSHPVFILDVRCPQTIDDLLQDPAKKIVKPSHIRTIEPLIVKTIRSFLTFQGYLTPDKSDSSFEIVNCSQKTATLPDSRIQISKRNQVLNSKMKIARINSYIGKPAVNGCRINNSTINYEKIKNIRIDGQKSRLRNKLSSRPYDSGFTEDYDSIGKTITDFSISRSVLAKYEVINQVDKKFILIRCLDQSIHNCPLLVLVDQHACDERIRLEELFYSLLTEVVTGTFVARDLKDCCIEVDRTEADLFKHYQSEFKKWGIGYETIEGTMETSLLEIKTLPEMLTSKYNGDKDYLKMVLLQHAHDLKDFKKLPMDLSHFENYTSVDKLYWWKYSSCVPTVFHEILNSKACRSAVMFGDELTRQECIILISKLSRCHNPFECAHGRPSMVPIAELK", "test": "FeBABE footprinting"}, "[2]": {"molecular_target": "T2, Mlh1 (untagged);HisFlag-Mlh3 (Saccharomyces cerevisiae (S288c, …, UniProt P38920;Q12083 1-769;1-715, |))", "T2 sequence 1": "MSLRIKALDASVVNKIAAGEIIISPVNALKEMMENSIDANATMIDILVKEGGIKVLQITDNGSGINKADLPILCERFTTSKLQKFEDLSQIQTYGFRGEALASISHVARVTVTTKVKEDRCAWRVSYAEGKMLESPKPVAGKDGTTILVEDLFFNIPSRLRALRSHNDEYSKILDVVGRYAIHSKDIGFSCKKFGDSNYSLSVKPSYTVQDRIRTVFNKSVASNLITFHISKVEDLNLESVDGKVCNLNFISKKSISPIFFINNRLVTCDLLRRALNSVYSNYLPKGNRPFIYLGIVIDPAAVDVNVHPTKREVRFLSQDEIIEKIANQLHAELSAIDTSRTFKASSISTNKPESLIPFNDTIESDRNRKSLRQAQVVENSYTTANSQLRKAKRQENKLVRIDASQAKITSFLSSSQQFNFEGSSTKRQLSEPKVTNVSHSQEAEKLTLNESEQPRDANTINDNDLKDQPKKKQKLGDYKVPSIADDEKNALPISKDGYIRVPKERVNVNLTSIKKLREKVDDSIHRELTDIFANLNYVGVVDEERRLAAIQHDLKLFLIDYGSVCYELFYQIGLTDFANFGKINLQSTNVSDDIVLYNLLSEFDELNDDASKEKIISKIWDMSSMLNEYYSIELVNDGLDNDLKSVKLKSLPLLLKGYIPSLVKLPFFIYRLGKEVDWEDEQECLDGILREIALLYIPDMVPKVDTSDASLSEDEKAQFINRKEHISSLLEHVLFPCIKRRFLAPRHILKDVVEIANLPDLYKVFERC", "T2 sequence 2": "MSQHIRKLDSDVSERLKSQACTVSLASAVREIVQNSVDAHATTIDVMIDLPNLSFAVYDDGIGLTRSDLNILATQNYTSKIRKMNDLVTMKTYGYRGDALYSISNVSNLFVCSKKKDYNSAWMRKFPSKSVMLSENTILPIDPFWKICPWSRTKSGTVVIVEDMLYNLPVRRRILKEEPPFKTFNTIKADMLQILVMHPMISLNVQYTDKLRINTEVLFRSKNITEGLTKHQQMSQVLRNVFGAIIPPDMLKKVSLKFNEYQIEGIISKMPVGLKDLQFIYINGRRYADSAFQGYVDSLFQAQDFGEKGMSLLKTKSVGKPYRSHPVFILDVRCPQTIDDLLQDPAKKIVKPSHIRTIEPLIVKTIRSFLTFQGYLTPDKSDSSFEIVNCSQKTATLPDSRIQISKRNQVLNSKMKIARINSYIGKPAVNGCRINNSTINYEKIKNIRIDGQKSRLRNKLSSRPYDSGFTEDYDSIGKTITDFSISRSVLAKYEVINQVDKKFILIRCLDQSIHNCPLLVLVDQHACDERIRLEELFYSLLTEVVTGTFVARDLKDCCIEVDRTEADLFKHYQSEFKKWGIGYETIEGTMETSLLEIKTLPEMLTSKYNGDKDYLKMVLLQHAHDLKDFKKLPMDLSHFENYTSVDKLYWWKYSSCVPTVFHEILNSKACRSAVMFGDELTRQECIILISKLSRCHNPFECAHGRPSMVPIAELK", "test": "FeBABE footprinting"}, "[3]": {"molecular_target": "T1, HisFlag-Mlh1 (MutLγ subunit);Mlh3 …", "test": "pull-down"}, "[4]": {"molecular_target": "T1, HisFlag-Mlh1 (MutLγ subunit);Mlh3 …", "test": "FeBABE footprinting", "remark": "listed apart in the source"}, "[5]": {"molecular_target": "T2, Mlh1 (untagged);HisFlag-Mlh3", "test": "FeBABE footprinting", "remark": "listed apart in the source"}}, "note": "Where two headings read alike, the source gives them in different places.", "data": [{"binder": "HJ+1 FeBABE (cb256/351/369/098) (structured_DNA, phosphorothioate-FeBABE on strands 2 and 3, segment 1 (nearest the center); 3'-biotin on strand 1) DNA 1: CTAGTATAGAGCCGGCGCGCCATGTCTAGATAGCGTTAGGTCTGCCGAATAGTACTACTCGGATCCCGAGCGAACCACGC DNA 2: GCGTGGTTCGCTCGGGATCCGAGTAGTACTATTCGGCAGAGGATTCGAATAGGCCTAATCGAATTCCGCCATCGATGCAC DNA 3: GTGCATCGATGGCGGAATTCGATTAGGCCTATTCGAATCCAGACGCGAGTAGATCTTCACGGTACCCGCGGTTACCCGTG DNA 4: CACGGGTAACCGCGGGTACCGTGAAGATCTACTCGCGTCTCCTAACGCTATCTAGACATGGCGCGCCGGCTCTATACTAG", "values": [{"measurement": "binding result", "setting": "[1]", "result": "binds"}, {"measurement": "binding result", "setting": "[2]", "result": "binds"}]}, {"binder": "HJ80-biotin (cb256/096/097/098) (structured_DNA, 3'-biotin on strand 1) DNA 1: CTAGTATAGAGCCGGCGCGCCATGTCTAGATAGCGTTAGGTCTGCCGAATAGTACTACTCGGATCCCGAGCGAACCACGC DNA 2: GCGTGGTTCGCTCGGGATCCGAGTAGTACTATTCGGCAGAGGATTCGAATAGGCCTAATCGAATTCCGCCATCGATGCAC DNA 3: GTGCATCGATGGCGGAATTCGATTAGGCCTATTCGAATCCAGACGCGAGTAGATCTTCACGGTACCCGCGGTTACCCGTG DNA 4: CACGGGTAACCGCGGGTACCGTGAAGATCTACTCGCGTCTCCTAACGCTATCTAGACATGGCGCGCCGGCTCTATACTAG", "values": [{"measurement": "binding result", "setting": "[3]", "result": "binds"}]}, {"binder": "dsDNA80-biotin (cb256/cb100) (dsDNA, 3'-biotin on strand 1) DNA 1: CTAGTATAGAGCCGGCGCGCCATGTCTAGATAGCGTTAGGTCTGCCGAATAGTACTACTCGGATCCCGAGCGAACCACGC DNA 2: GCGTGGTTCGCTCGGGATCCGAGTAGTACTATTCGGCAGACCTAACGCTATCTAGACATGGCGCGCCGGCTCTATACTAG", "values": [{"measurement": "binding result", "setting": "[3]", "result": "no binding"}]}, {"binder": "ssDNA+ FeBABE (cb361) (ssDNA, phosphorothioate-FeBABE after every 8 nt; 3'-biotin) DNA: TTTTTTTTTTTTTTTTTTTTTTTTTTTTTTTTTTTTTTTTTTTTTTTTTTTTTTTTTTTTTTTTTTTTTTTTTTTTTTTT", "values": [{"measurement": "binding result", "setting": "[4]", "result": "binds"}, {"measurement": "binding result", "setting": "[5]", "result": "binds"}]}, {"binder": "ssDNA80-biotin (cb316) (ssDNA, 3'-biotin) DNA: TTTTTTTTTTTTTTTTTTTTTTTTTTTTTTTTTTTTTTTTTTTTTTTTTTTTTTTTTTTTTTTTTTTTTTTTTTTTTTTT", "values": [{"measurement": "binding result", "setting": "[3]", "result": "binds"}]}]}
